We go through 30 sequences from the nanobody polyreactivity screen of Harvey et al. (2022).

The series is described as follows: yeast display, Sf9 membrane polyspecificity reagent, FACS + sequencing; frameworks hold sequencing errors. A digest of the protocol:
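Nanobodies from a synthetic yeast display library (Saccharomyces cerevisiae BJ5465), induced 36–48 hours with galactose, were stained 1 hour at 4 °C with 10% biotinylated, detergent-solubilized Sf9 membrane reagent, enriched on streptavidin microbeads, then FACS-sorted. Anti-HA (expression) and streptavidin (reagent binding) fluorescence set low and high (top ~1%) gates. Polyreactivity labels come from the gate of origin. Genes were colony-PCR amplified, MiSeq 2 × 250 sequenced and filtered by CDR length.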
For “QVQLVESGGGLVQAGGSGRLSCAASGITCAYYAMGWYRQAAGKERELVAVITSGGRPNYADSVKGRVTISRDNAKNTVYLQMNSLKPEDTAVYYCAAYRSSKTLRRGYYYWGQGTQVTGSS”, the “polyreactivity (PSR sort gate)” value is reported as “high polyreactivity”. Turning to “QVQLVESGGGLVQAGGSHRISCAASGLTFFRNAMGWYRQAPGKERELVATITSTSSTNYADSVKGRFTISRDNAKNKVYLQMYSVKPEDTAVYYCNARVYYKYVGRMYYWGQGTQVTVSS”, the “polyreactivity (PSR sort gate)” value is reported as “high polyreactivity”. Under “QVQLVESGGGLVQAGGSHRISCAASGRTFARYVMGWYRQAPGKERELVAAISRSGGTYYADSVKGRFTISRDNAKNTVYLQMNSLKPEDTAVYYCRIPSHGGVYWGQGTQVTVSS” stands “high polyreactivity”; under “QVQLVESGGGLVQAGGSHRLRCAASGLIIGDYGMGWYRQAPGKERELVAAITDRGGTTYYADSVKGRFTISRDNAKNTVYFQMNSLKPEDTAVYYCIARQSDIFDYDYWGQGSQVTVSS”, “low polyreactivity”.

In the case of “QVQLVESGGGLVQAGGSHRLSCAASGFIFSYYAKGRYRQAPGKERELVAAISSSGGTTYADSVKGRFTISRDNAKNTVYLHMNSLKPEDTAVYYCARVQYWFYKPMYYWGQGTQVTVSS”, the “polyreactivity (PSR sort gate)” value was “high polyreactivity”. “QVQLVESGGGLVQAGGSHRLSCAASGFIFSYYAMGWYRQAPGKERELVAAITDSGGSTYYADSVKGRFTISRDNAKNTVYLQMNSLKPEDTAVYYCAATYWWAYVWAYSHVKSTNDYWGQGTQVTVSS”: the “polyreactivity (PSR sort gate)” value is “low polyreactivity”.

On to “QVQLVESGGGLVQAGGSHRLSCAASGFTFYRYAMGSYRQAPGKERELVAAITGGGSTYYADSVKGRFTISRDNAKNTVYLQMNSLKPVDTAVYYCNAYHIVIYDYWGQGTQVTVSS”, for which the “polyreactivity (PSR sort gate)” value is listed as “low polyreactivity”.

As for “QVQLVESGGGLVQAGGSHRLSCAASGFTINFYSMGWYRQAPGKERELVAAITASGGGSTYYADSVKGRFTISRDNAKNTVYLQMNSLKPEDTAVYYCNADYTGSFYTYDYWGQGTQVTVSS”, the “polyreactivity (PSR sort gate)” value is on record as “low polyreactivity”. Regarding “QVQLVESGGGLVQAGGSHRLSCAASGGTFDDYALGWYRQAPGKERELVAAISSSGGSTYYADSVKGRFTISRDNAKNTVYLQMNSLKPEDTAVYYCAVDAYWRLWYYPYESHHDYWGQGTQVTVSS”, the “polyreactivity (PSR sort gate)” value is “low polyreactivity”.

For the sequence “QVQLVESGGGLVQAGGSHRLSCAASGITFNVYAMGWYRQATGKERELVAAISYNGGRTYYADSVKGRFTISRDNAKNTVYLQMNSLKPEDTAVYYCNTVSLSLRYDYWGQGTQVTVSS”, the “polyreactivity (PSR sort gate)” value is listed as “high polyreactivity”. Turning to “QVQLVESGGGLVQAGGSHRLSCAASGLTFDHYAMGWYRQAPGKERELVAAISRTGTRTYYADSVKERFTISRDNAKNTVYLQMNSLKPEDTAVYYCNAGTYWQGDSYDYWGQGTQVTVSS”, the “polyreactivity (PSR sort gate)” value is given as “low polyreactivity”. Regarding “QVQLVESGGGLVQAGGSHRLSCAASGRIFVYYPRGWYRQAPGIETELVAAINAGRSTNYADSVKGRFTNSRDNAKNNVYLQMNSLKLQDTAVYFCAAVRRSRYSYRGYYWGQGTQVTVSS”, the “polyreactivity (PSR sort gate)” value is on record as “high polyreactivity”.

Take “QVQLVESGGGLVQAGGSHRLSCAASGRIIGYNPMGWYRQAPGKERELVASIRYSGGSTYYADSVKGRFTISRDNAKNPVYLQMNSLKPEDTAVYYCATRVTYRRRFDYWGQGTQVTVSS”: the “polyreactivity (PSR sort gate)” value was “high polyreactivity”.

As to “QVQLVESGGGLVQAGGSHRLSCAASGRIYGDYAMGWYRQAPGKERELVAAINSSGTSTIYADSVKGRFTISRDNAKNTVYLQLNCLKPEDTAVYYCADLFTFKYDYWGQGTQVTVSS”, the “polyreactivity (PSR sort gate)” value is listed as “low polyreactivity”. Under “QVQLVESGGGLVQAGGSHRLSCAASGRLFSWNAMGWYRQAPGTERELVAAITNGGGTYYADSVKGRFTISRDNAKNTVYLQMNSLKPEDTAVYYCNAYRRKLWYPTGLYWGQGTQVTVSS” stands “high polyreactivity”; under “QVQLVESGGGLVQAGGSHRLSCAASGRTFEYNAMGWYRQAPGKERELVATITRASTNYADSVKGRFTISRDNAKNTVYLQMNSLKPEDTAVYYCNARARGRRYPYSKYYYWGQGTQVTVSS”, “high polyreactivity”. With “QVQLVESGGGLVQAGGSHRLSCAASGRTFEYNGKGWYRQAPGKERELVAAITRGGSTYYADSVKGRFTISRDNAKNTVYLQMNSLKPEDTAVYYCAAEVGWSRYKWLEYWGQGTQVTVSS”, the “polyreactivity (PSR sort gate)” value is reported as “low polyreactivity”. Under “QVQLVESGGGLVQAGGSHRLSCAASGRTFPGNAMGWYRQAPGKERDLVAAITSSGDTDYADSVKGRFKISRDNAKNTVDLQMNSLKTEDRAVYYCAKGYSYGRPWDIYYYWGHGTQVTVSS” stands “low polyreactivity”; under “QVQLVESGGGLVQAGGSHRLSCAASGRTFPGNAMGWYRQAPGKERELVAAISWSGTRTYYADSVKGRFTISRDNAKNTVYLQMNSLKPEDTAVYYCNVVVKGAWDYYPYDYWGQGTQVTVSS”, “high polyreactivity”. Consider “QVQLVESGGGLVQAGGSHRLSCAASGSIFIRYAMGWYRQAPAKERELVASITSGGSTYYADSVKGRFTISRDNEKNTVYLQMNSLKPEDTSVYYCNALPYRYRRYDYWGQGTQVTVSS”, for which the “polyreactivity (PSR sort gate)” value was “low polyreactivity”.

Consider “QVQLVESGGGLVQAGGSHRLSCAASGSIFYPYPMGLYRQAPGKERELVAAITTRDDSTRYADSVKGRFTISRDNAKNTGYLQMNTLKPEDTAVYYCNTDYGPVFGQYYWYELDYWGQGTQVNVSS”, for which the “polyreactivity (PSR sort gate)” value is “low polyreactivity”.

In the case of “QVQLVESGGGLVQAGGSHRLSCAASGSTFAGNAMGWYRQAPGKERELVAAISGSGGITYYADSVKGRFTISRDNAKNTVYLQMNSLKPEDTAVYYCNAYYWFSRYGYWGQGTQVTVSS”, the “polyreactivity (PSR sort gate)” value is recorded as “high polyreactivity”.

With “QVQLVESGGGLVQAGGSHRLSCAASGSTFDYYAMGWYRQAPGKERELVAAITFSGDRTYYADSVKGRFTISRDNAKNTVYLQMNSLKPEDTAVYYCAARWFVYRYIFDYWGQGTQVTVSS”, the “polyreactivity (PSR sort gate)” value is recorded as “high polyreactivity”. On to “QVQLVESGGGLVQAGGSHRLSCAASGSTFKDYAMVWYRQAPGKERELVASITESGGSTYYADSVKGRFTISRDNAKNTVYLQMNSLNPEDTAVYYCATDLIPEGSGYDYWGQGTQVTVSS”, for which the “polyreactivity (PSR sort gate)” value is reported as “low polyreactivity”. Then “QVQLVESGGGLVQAGGSHRLSCAASGSTFSYNTMGWYRQAPGKERELVAAIRSGGSTYYADSVKGRFTISRDNAKNTVYLQMNSLKPEDTAVYYCATDKFHRKVLHWYDYWGQGTQVTVSS”, with “low polyreactivity”; and “QVQLVESGGGLVQAGGSHRLSCAASGSTFTGYAMACYRQAPGKEREFVAGNTGSGGSTYYADSVKGRFTISRDIAKNSVYFQMISLKPEDTAVYYCAASFWYHYVWLDYYWGQGTQVTVSS”, with “low polyreactivity”. As to “QVQLVESGGGLVQAGGSHRLSCAATGNTFHTNAIGWYRQAPGKERELVAAITGGGSTYYADSVKGRFTISRDNAKNTVYLQMNSLKPEDTAVYYCNTDVPYGLDVSDTIDYYYWGQGTQVTVSS”, the “polyreactivity (PSR sort gate)” value is reported as “low polyreactivity”. For “QVQLVESGGGLVQAGGSHRLSCAAYGSIFATNAMGWYRQAPGKERELVASISYSVSRTYYADSVKGRFTISRDNSMNTVYLQMNSMKPEDTAFYYSAVRQVNWFGIGYEDDYWGQGTQVTVSS”, the “polyreactivity (PSR sort gate)” value was “low polyreactivity”. Then “QVQLVESGGGLVQAGGSHRLSCADSGSIFWYNAMGWYRQAPGKEREFVATITWSGDSTYYADSVKGRFTISRDNAKNTVYLQMNSLKPEDTAVYYCAALLDYSVADLYSHHVSRYYYWGQGTQVTVSS”, with “low polyreactivity”. Then “QVQLVESGGGLVQAGGSHRLSCDASGRTFWVNAMGWYRQAPGKERELVATIRGSGVSTYYADSVNGRFTISRDNAKNTVYLKMNSLKPVDTAVYYCATTYHRVGLQYTFDYLGQGTQVTVSS”, with “low polyreactivity”.
